From US20210047402A1 (published 2021) come the findings set out here.

What is called Kd is the concentration at which binding is half-saturated.

Substitutions are numbered along the chain they refer to.

B1: anti-CD22 heavy chain-only antibody Clone ID 335232 (antibody, V domains shown)
VH: QLQLQESGPGLVKPSETLSLTCTVSGDSISSGDYYWGWIRQPPGKGLEWIGHIYYSGATYYNPSLKNRVTISVDTSRNQSSLNLSSVTAADTAVYYCTREDSSNWRSRGQGTLVTVSS
B2: anti-CD22 heavy chain-only antibody Clone ID 335171 (antibody, V domains shown)
VH: B1 VH with D27G, G32S, D33S, H52S, S80F, E100D
B3: anti-CD22 heavy chain-only antibody Clone ID 335263 (antibody, V domains shown)
VH: B1 VH with D27G, S30N, S31D, G32N, D33S, Y34H, S80F, N104S
B4: anti-CD22 heavy chain-only antibody Clone ID 335261 (antibody, V domains shown)
VH: B1 VH with K66E, R77K, S80F, N83K, N104S
B5: anti-CD22 heavy chain-only antibody Clone ID 335234 (antibody, V domains shown)
VH: B1 VH with H52N, R77K, S80F, N83K
B6: anti-CD22 heavy chain-only antibody Clone ID 335151 (antibody, V domains shown)
VH: B1 VH with S80F, E100D
B7: anti-CD22 heavy chain-only antibody Clone ID 335260 (antibody, V domains shown)
VH: B1 VH with A58V, S80F, N104S
B8: anti-CD22 heavy chain-only antibody Clone ID 335203 (antibody, V domains shown)
VH: B1 VH with A58V, R77K, S80F, N83K
B9: anti-CD22 heavy chain-only antibody Clone ID 335161 (antibody, V domains shown)
VH: B1 VH with K66E, R77K, S80F, N83K, E100D
B10: anti-CD22 heavy chain-only antibody Clone ID 335207 (antibody, V domains shown)
VH: B1 VH with A58V, N67S, S80F, N83K
B11: anti-CD22 heavy chain-only antibody Clone ID 335154 (antibody, V domains shown)
VH: B1 VH with A58V, R77K, S80F, N83K, E100D
B12: anti-CD22 heavy chain-only antibody Clone ID 335323 (antibody, V domains shown)
VH: B1 VH with D33G, H52S, A58S, R77K, S80F, N83K, N104S
B13: anti-CD22 heavy chain-only antibody Clone ID 335160 (antibody, V domains shown)
VH: B1 VH with H52S, R77K, S80F, N83K, E100D
B14: anti-CD22 heavy chain-only antibody Clone ID 335176 (antibody, V domains shown)
VH: B1 VH with R77K, S80F, N83K, E100D
B15: anti-CD22 heavy chain-only antibody Clone ID 335201 (antibody, V domains shown)
VH: B1 VH with A58V, S80F, N83K

T1 sequence (P20273 20-687): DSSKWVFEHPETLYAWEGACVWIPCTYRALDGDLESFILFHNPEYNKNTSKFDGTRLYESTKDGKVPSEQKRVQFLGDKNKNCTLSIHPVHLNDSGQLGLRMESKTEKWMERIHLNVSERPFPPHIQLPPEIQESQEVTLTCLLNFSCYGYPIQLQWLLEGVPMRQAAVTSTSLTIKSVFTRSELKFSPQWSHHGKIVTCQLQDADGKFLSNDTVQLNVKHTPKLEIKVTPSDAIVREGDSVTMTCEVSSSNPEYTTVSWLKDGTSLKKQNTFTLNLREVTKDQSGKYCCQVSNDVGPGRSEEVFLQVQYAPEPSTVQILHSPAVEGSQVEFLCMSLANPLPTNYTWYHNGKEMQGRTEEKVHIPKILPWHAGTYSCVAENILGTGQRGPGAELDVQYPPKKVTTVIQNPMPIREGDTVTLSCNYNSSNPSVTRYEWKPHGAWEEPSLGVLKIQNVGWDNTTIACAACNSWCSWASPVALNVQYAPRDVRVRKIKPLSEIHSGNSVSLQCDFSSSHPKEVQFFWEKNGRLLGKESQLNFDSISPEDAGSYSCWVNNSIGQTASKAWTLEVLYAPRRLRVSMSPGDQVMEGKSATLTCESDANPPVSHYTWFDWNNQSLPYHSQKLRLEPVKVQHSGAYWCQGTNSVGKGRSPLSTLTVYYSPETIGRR

The first assay has as its target T1, human CD22 (human, UniProt P20273 20-687). Put plainly: BLI. The procedure, abridged: (§1)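 Heavy chain-only antibodies were loaded at 5 μg/mL for 120 seconds onto anti-human IgG Fc capture biosensors on an Octet QK-384, using 1×PBS, 0.1% BSA, 0.02% Tween-20, pH 7.2 buffer. Human CD22 protein was applied in a 7-point 1:2 dilution series beginning at 250 nM, alongside a buffer-only reference well, and the data were fit to a 1:1 binding model in Octet Data Analysis v9.0. Kd, the affinity measure from this biolayer interferometry assay, was obtained as koff/kon.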
On the technique in general: Biolayer interferometry detects binding as a change in optical thickness at a sensor tip.
Molecule B1 returned a Kd of 24.6 nM.
Same read-out and setting: with B2 the figure was 84.5 nM; with B3, 2580 nM.

A further assay concerns the target T1, human CD22. As to the kind of experiment: BLI. The source holds these as a separate data set. The essentials:
as §1
The molecule B4 returned a Kd of 5.27 nM.
Still for that read-out and setting: the same measure for B5: 12.4 nM; for B6: 3.77 nM.
Same read-out and setting: with B7 the figure was 3.17 nM; with B8, 6.8 nM.
Molecule B9 registered a dissociation constant Kd of 2.66 nM.
On the same count and under the same terms, with B10 the figure was 3.24 nM; with B11, 5.41 nM; with B12, 14.1 nM.
The same measure, in the same setting: the same measure for B13: 8.51 nM.
In turn, B14 displayed an equilibrium dissociation constant (Kd) of 4.62 nM.
Same read-out and setting: with B15 the figure was 5.19 nM.
